Test results from the nanobody polyreactivity screen of Harvey et al. (2022).

Test: yeast display, Sf9 membrane polyspecificity reagent, FACS + sequencing; frameworks hold sequencing errors
Method in brief: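 Galactose induction of a Saccharomyces cerevisiae BJ5465 synthetic nanobody display library ran 36–48 hours. The cells were then stained for 1 hour at 4 °C with 10% biotinylated, detergent-solubilized Sf9 membrane reagent, pulled down on streptavidin microbeads and FACS-sorted into low and high (top ~1%) gates on expression and reagent-binding fluorescence. Labels for polyreactivity follow the gate of origin.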

Sequence	polyreactivity (PSR sort gate)
QVQLVESGGGLDQAGGSLRLSCAASGFIFVRNAMGWYRQPPGKERELVAAITRSGGSTSYADSVKGRFTISRDNAKNTVYLQMNSLKPEDTAVYYCASERYPWQLYWSYYGYYYWGQGTQVTVSS	high polyreactivity
QVQLVESGVGLVQAGGSLRLSCAASGFIFPTNTMGWYRQAPGKEREFVARITRSGTNTYYADSVKGRFTISRDNAKNTVYLQMNSLKPEDTAVYYCATRYYHFNYWGQATQVTVSS	high polyreactivity
QVQLVESAGGLVQAGGSLRLSCAASARTFSAYSMGWYRQAPGKERELVAAISRRGRSTYYADSVKGRFTISRDNAKNTVYLQMTSLKPEDTAVYYCAADVYKQYGYYYWGLGTQVTVSS	high polyreactivity
QVQLVESGGGLVQAGGSLRLSCAASGFTIYRYAMGWYRQAPGKERELVAAITWSGVSTYYADSVKGRFTISRDNAKNTVYLQMNSLKPEDTAVYYCAATTYSSSSSHDYWGQGTQVTVSS	low polyreactivity
QVQLVESGGGLVQAGGSLRLSCAASGLNIRYYAMGWYRQAPGKERELVAAISYNGGSTYYADSVKGRFTISRDNAKNTVYLQMNSLKPEDTAVYYCAARLYGRYGYWGQGTQVTVSS	high polyreactivity
QVQLVESGGGLVQAGGSLRLSCAASGFTFGYNAMGWYRHAPGKERELVAAISYRDGSTYYADSVKGRFTISRDNAKNTVYLQMNSLKPEDTAVYYCAAEVWYPGWGYDYWGQGTQVTVSS	high polyreactivity
QVQLVESGGGLVQAGGSLRLSCAASGIIFYGNAMGWYRPAPGKERELVAAISWTTDSTYADSVKGRFTISRDNAKNTVYLQMNSLKPEDTAVYYCNARNGSEFLANDLFTHEYDYWGQGTQVTVSS	low polyreactivity
QVQLVESGGGLVQAGGSLRLSCAASGSTFLRYAMGWYRQAPGKERELVAGIRYSGGTYYADSVKGRFTISRDNAKNTVYLQMNSLKPEDTAVYYCAAYWKLGGFRYGYWGQGTQVTVSS	high polyreactivity
QVQLVESGGGLVQAGGSLRLSCAASGRTLRYYDMGWYRQEPGKEREIVAAISWSGVSTYYADSVKGRFTISRDNAKNTVYLQMNSMQPEDTAVYYCAVGYVLTGVFEARFDYWGQGTLVTVSS	high polyreactivity
QVQLVESGGGLVQAGGTLLLSGAASGSIFGYNAMGWYRQAPGKERELVAAIRSSDSRTHYADSVKGRFRISRDNAKNTVYLQMNSLKPEDTAVYYCAAVKRRPGHYLYDYWGQGTQVTVSS	low polyreactivity
QVQHVESGGGLVQAGGSLRLSCAASGSTFGRNAMGWYRQAPGKERELVAAINWSDGSTHYADSVKGRFTISRDNAKNTVYLQMNSLKPEDTAVYYCGADAWSWPVDYNYWGQGTQVTVSS	low polyreactivity
QVQLVESGGGLVQAGGSLRLSCAASGRTFVNYALGWYRQAPGKERELVAAISGGGGTNYADSVKGRFTISRDNAKNTVYLQMNSLKPEDTAVYYCNAVPSQHDEFDYWGQGTQVTVSS	low polyreactivity
QVQLVVSGGGLVQAGGSLRLSCAASGSIFKKYAMGWYRQAPGKERELVAAITRGTYYADSVKGRFTISRDNAKNTVYLLMNSLNPEDTAVYYCNREYWVRGYYRVRGEYDYWGQGTQVTVSS	low polyreactivity
QVQLVESGGGLVQAGASLRLSCAASGSTSYPYAMGWYRQAPWKEREFVAAITRSGGSTYYADSVKGRYTISRDNAKNTVYLQMNSLKPEDTAFYYCAARRYYFTDWYRRYDYWGQGTQVTVSS	high polyreactivity
QVQLVESGGGLVQAGGSLRLSWAASGITFYVYAMGWYRQAPGKERELVAAISRRGGSTSYADSVKGRFTISRDNAKNTVYLQMNSLKPEDTAVYYGAAGPFYGGIVRRYDYWGQGTQVTVSS	low polyreactivity
QVQLVESGGGLVQAGGSLRLSCAASGSTFGPYAMGWYRQAPGKERELVATINSSGSTNYADSVKGRFTISRDNAKNTVYLQMKSLKPEDTAVYYCATLHYYYWYDYWGQGTQVTVSS	low polyreactivity
QVQLVESGGGLVQAGGSHRLSCAASGSTFSWNTMGWYRQAPGKERELVASITRSDGSTYADSEKGRFTISRDNAKNTVYLQMNSLKPEDTAVYYCNADPYLYLYLNYDYWGQGTQVTVSS	low polyreactivity
QVQLVESGGGLVQAGRSLRLSCAASGFPFYQYAMGWYRQAPGQERELVAAITWSRGDTYYADSVKGRFTISRDNAKNTVYLQMNSLKPEDSAVFNCNADDRPRGPYYDSFDYRGDYWGQGTQVTVSS	low polyreactivity
QVQLVESGGGLVQAGGSLRLSCAPSGNTFGRNAMGWYRQAPGKERELVAAISFSGSRTYYADSVKGRFTISRDNAKNTVYLQMSSLKPEDTAVYYCNKRGADWTGFFYYEYDYWGQGTQVTVSS	low polyreactivity
QVQLVESGGGLVQAGGSLRLSCAASGRTFHGYAMGWSRQAPGKERELVARINWSDGRTYYADSVKGRFTISRDNAKNTVYLQMNSLKPADTGVYYCAARLYSSASGVRWIKFDYWGQGTQVTVSS	low polyreactivity
QVQLVESGGGLVQAGGSLRLSCAASGFTFYGYAMGWYIQAPGKERELVAAITGSGARTYYADSVKGRFTISRDNAKNTVYLQMNSLKPEDTAVYYCNKVGVTRVGYTYRVREYDYWGQGTQVTVSS	high polyreactivity
QVQLVESGGGLVQEGGSLRLSCAASGSTFIDYAMGWYRQAPGKERELVAAITNGGNTKYADSVKGRFTISRDNAKNTVYLQMHSLKPEETAVYYGAREPSIFTPSYDYWGQGTQVTVSS	low polyreactivity

Sequence	polyreactivity (PSR sort gate)
QVQLVESGGGLVQAGGSLRLSCAASGSIFYYYVMGWYIQAPGKERELVAAISSGGGTNYADSVKGRFTISRDNAKNSVYLQMNSLNPEDTAVYYGAKASAYGLANDYDYWGQGTQVTVSS	low polyreactivity
QVQLVESGGGLVQAGGSLRLSCAASGSTFLSNAMGWYRQAPGKERELVASIDWSGVSTYYADSVKGRFTISRDNAKNTVYLQMNSLNPEDTAVYYCAAEQVQSWDAYYQVEEYDYWGQGTQVTVSS	low polyreactivity
QVQLVESGGGLVQAGGSLRLSCAASGSTFFRYAMGWYRQAPGKERELVAAISKSGASTYYADSVKGRFTISRDNAKNTVYLQMNSLKPEDTAVYYCNADVKKSSAREWQYGYDYWGQGTQVTVSS	low polyreactivity
QVQLVESGGGLVQAGGSLRLSCAASGSTFSAYAMGGYRQAPGKERELVAVITSGASTYYADSVKGRFTISRDNAKNTVYLQMNSLKPEDTAVYYCAAYGYSYRGWRMDYWGQGTQVTVSS	high polyreactivity
QGQLVESGGGLVQAGVSLRLSCAASGSTFRDYAMGWYRQAPGKERELVASITSGGSTNYADSVKGRFTISRDNAKNTVYLQMNSLKPEDTAVYYCGAESMPRWFVRYDYWGQGTQVTVSS	low polyreactivity
QVQLVESGGGLVQAGGSLRLSLAASGSNFSSYAMGWYRQAPGKEREWVAAIRLIGGTTYYADSVKGRFTISRDNAKNTVYLQMNSLKPEDTAVYYCNAPSYPDYIYWSQRYDYDYWGQGTKVTVSS	low polyreactivity
QVQLVESGGGLVQAGGSLRLSCAASGSIFRTNTMGWYRQAPGKEREFVAAITAIGDSTYYADSVKGRFTISRDNAKNTVYLQMNSLKPEDTAVYYCAAEKVSWGYHFYSSYDYWGQGTQVTVSS	low polyreactivity
QVQLVESGGGLVQAGGSLRLSCAASGSIFRVYAMGWYRQAPGKERELVAAISSSGVRTSYADSVKGRFTISRDNAKNTVYLQMNSLKPEDTAVYYCNAAYGRRYDYWGQGTQVTVSS	high polyreactivity
HVQLVESGGGLVQAGGSLRLSCAASGSTFTLNVMGWYRQAPGKERELVAGISKRGGNTYYADSVKGRFTISRDNAKNTVYLQMNSLKPEDTAVYYCATYSRIFKWEYYYWGQGTQVTVSS	high polyreactivity
QVQLVESGGGLVQAGGSLRLSCAASGFTFLIYAMGWYRQAPGKERELVAAITWRGSGTYYADSVKGRFTISRDNAKNTVYLQMNSLNPEDTAVFYCGARTARRTYDYWGQGTQVTVSS	low polyreactivity
QVQLVQSGGGLVQAGGSLRLSCAPTGVIFRHNARGWYRQSPGKERELVAAISRSGGNTYYADSVKGRFTISRDNAKQTDYLQRNSLKPEDTAVYYSNKIEYDSWADHVYWGQGTQVTVSS	low polyreactivity
QVQLVESGGGLVQAGGSLRLSCAASGRTFDGYDMGSYRQAPGKERELVAAINVVGGSTYYADSVKGRFTISRDNAKNTVYLLMNSLKPEDTEVYYCAARRSYLTNFRRYYKMDYWGQGTQVTVAS	low polyreactivity
QVQLVESCGGLVQAGGSLRLSCAASGGTFGFYAMGWYRQAPGKERELVAAISRRGGSTYYADSVKGRFTISRDNAKNTVYLQMNSLKPEDTAVYYCAARVYRYRHYDYWGQGTQVTVSS	high polyreactivity
QVQLVESGGGLVQAGGSLRLSCAASGRTFYRYAMGWYRQAPGKERELVARITNRGGITYYADSVKGRFTISRDNAKNTVYLQMNSLKPEDTAVYYCAADPIGYTWAGTHGDYYNEHDYWGQGTQVTVSS	low polyreactivity
QVQLVESGGGLVQAGGSLRLSCAASGRIFFFNTMGWYRQAPGKERELVARINRGGRTNYADSVKGRFTISRDNAKNTVYLQMNSLKPEDTAVYYCAADRTWYKLETTEYDYWGQGTQVTVSS	high polyreactivity
QVQLVESGGGLVQAGGSLRLSCAASGNIFPSYAMGWYRQAPGKERELVASINFSDGYTSYADSVKGRFTISRDNAKNTVYLQMNSLKPEDTAVYNCNADVWYYYYGFKGEEDYWGQGTQVTVSS	low polyreactivity
QVQLVESGGGLVQAGGSLRLSCAASGSIYYNAMGWYRQAPGKERELVAAISTSGGTTYYADSVKGRFTISRDNAKNTVYLQMNSLKPEDTAVYYCNALSVPDYDYWGQGTQVTVSS	high polyreactivity
QVQIVESGGGLVQAGGSLRLSCAASGSTFVVYAMGWYRQAPGKERELVAAISYRAGITYYADSVKGRFTISRDNAKNTVYLQMNSLKPEDTAVYYCAADRYYGVGSGYWGQGTQVTVSS	high polyreactivity
QVQLVESGGGLVQAGGSLRLSCAASGRTLYRNAMGWYRQAPGKERELVARITWSGASTYYADSVKGRFTISRDNAKNTVYLQMNSLKPDDTAVYYCNTGYWYVSLGSYDYYGEYDYWGQGTQVTVSS	high polyreactivity
QVQLVESGGGLVQAGGSLRLSCAASGFTFSRYVMGWYRQAPGKERELVATISSDGDDTYYADSVKGRFTISRDNAKNTVYLQMNSLKPEDTAVYYCAAESYTYYADYGYGYWGQGTQVTVSS	high polyreactivity
QVQLVESGGGLVQAGGSLRLSCAASGRIFRRNTMGWYRQAPGKEREVVAAITSSGGSTYADSVKGRFTISRDNAKNTVYLQMNSLKPEDTAVYYCATYVAYHRGYRTYDHWGQGTQVTVSS	low polyreactivity
